# Assay results from paper PMC10785756, “Hydrolysis of Antimicrobial Peptides by Extracellular Peptidases in Wastewater” (Environmental Science & Technology, 2023).
# Columns and labels:
# [1] = system: extracellular wastewater peptidases (pool I extracts from WWTP influents); assay: AMP incubation with active dissolved extracellular wastewater extracts (pool I) from WWTP influents; format: in vitro ADME
# Description: We took samples from four municipal WWTPs in Austria ([…], and D). […] Where existing, we sampled the following five stages along the wastewater treatment process: influent, primary clarification tank, high-load and low-load aeration tanks, and effluent. […] We took 2 × 500 mL grab samples at each stage using a plastic beaker. We transferred the samples into 500 mL glass bottles leaving roughly one-third of the bottle empty, transported them to the lab, and pooled duplicate samples for further processing. Enzyme extraction started within 1 h after sampling. For total suspended solid (TSS) determination, we filtered 20 mL of each sample through a preweighed, dry GF/F Whatman glass microfiber filter (Sigma-Aldrich, WHA1825047) using a vacuum filtration system, dried the filters at 105 °C for 2 h, and determined the TSS contents from the weight difference. […] Otherwise, the extraction process was the same for pools I and II. All extractions were performed in triplicate, and extracts were kept on ice until further use. […] Triplicate incubations were conducted for the autoclaved and active extracts with spiked AMP. […] This protocol step was conducted according to Luther et al.[9] We then transferred the supernatant into a fresh 1.5 mL protein LoBind Eppendorf tube and dried it in a SpeedVac vacuum concentrator (30 °C for approximately 6 h). […] We transferred the solution into QuanRecovery HPLC vials (Waters, 186009186) and stored the samples at -20 °C until analysis. For method development, selected (and indicated) samples were sonicated (Sonorex Super RK 106, Bandelin, max 480 W) for 5 min at different steps of the sample preparation process. We analyzed AMPs using UHPLC (Thermo Scientific Dionex Ultimate 3000) equipped with a Waters XSelect PREMIER CSH C18 column (article number: 186009870) coupled to HRMS (Thermo QExactive). We injected 10 μL of each sample and applied a flow rate of 0.4 mL/min using the following eluent gradient (A: ultrapure water, B: […] Detection parameters were chosen as follows: […] We used Skyline (version 20.2.0.343) to analyze the raw data. […] For products, the peak area had to either increase throughout the incubation experiment or first increase and then decrease.
# [2] = system: extracellular wastewater peptidases (pool I extracts from WWTP influents); assay: Absolute quantification of transformation products (TPs) formed during AMP incubation with wastewater extracts; format: in vitro ADME
# Description: We thawed enzyme extracts and transferred 1.35 mL to 2 mL protein LoBind Eppendorf tubes. For autoclaved controls, extract aliquots of 1.5 mL were autoclaved for 20 min at 121 °C and 2 bar (Wolf Sanoclav LaS-MCS-J) and 1.35 mL of the autoclaved extracts were transferred into 2 mL protein LoBind Eppendorf tubes. We then spiked 150 μL of the AMP stock solution containing all AMPs at 10 μg/mL to the enzyme extracts or 1.35 mL of ultrapure water. […] Triplicate incubations were conducted for the autoclaved and active extracts with spiked AMP. After AMP spiking, we mixed the solutions by inverting the vials and incubating them at 20 °C under horizontal shaking at 300 rpm. To stop enzymatic reactions at pre-defined sampling time points (i.e., 2 min, 30 min, 1 h, 2 h, and 4 h), we transferred 150 μL of the incubation solution to 450 μL of acetonitrile containing 1% (v/v) formic acid in 1.5 mL protein LoBind Eppendorf tubes, mixed the resulting solution by inverting the tube and by horizontally shaking it at 300 rpm for 2 min at 20 °C, and centrifuged samples at 16,000g for 1 min. This protocol step was conducted according to Luther et al.[9] We then transferred the supernatant into a fresh 1.5 mL protein LoBind Eppendorf tube and dried it in a SpeedVac vacuum concentrator (30 °C for approximately 6 h). To resolubilize AMPs, we added 150 μL of water containing 5% (v/v) acetonitrile and 0.1% (v/v) formic acid, vortexed the samples, and centrifuged them for 10 s at 1000g at room temperature. We transferred the solution into QuanRecovery HPLC vials (Waters, 186009186) and stored the samples at −20 °C until analysis. For method development, selected (and indicated) samples were sonicated (Sonorex Super RK 106, Bandelin, max 480 W) for 5 min at different steps of the sample preparation process.
# We analyzed AMPs using UHPLC (Thermo Scientific Dionex Ultimate 3000) equipped with a Waters XSelect PREMIER CSH C18 column (article number: 186009870) coupled to HRMS (Thermo QExactive). […] We used Skyline (version 20.2.0.343) to analyze the raw data. Criteria for parent peptides and hydrolysis product identification were set as described before:[31]m/z deviation <2 ppm, MS/MS fragments with m/z deviation <5 ppm, and reasonable chromatographic peak shape. For products, the peak area had to either increase throughout the incubation experiment or first increase and then decrease.
# To learn about the enzymatic hydrolysis pathways of AMPs that we found to be rapidly biotransformed by enzymes in wastewater extracts, we predicted all products of single peptide bond hydrolysis reactions and screened our data-dependent high-resolution mass spectrometry data for experimental evidence in support of the predicted hydrolysis products. These analyses were conducted for the AMPs with the highest biotransformation extents (i.e., >0.5 in at least two WWTPs), namely, cecropin P1, omiganan, and R8. The following requirements for transformation products (TPs) were defined: at least three amino acids, peak area either increases during the incubation experiment or first increases and then decreases, peak area exceeds that in AMP-free enzyme extract by >5-fold and that in spiked autoclaved extracts by >6-fold, and mass deviation <2 ppm from the calculated exact mass. Mass lists, mass deviations, and retention times of all TPs can be found in Tables S6–S11. We further predicted TPs formed via exocleavage mechanisms (i.e., cleavage of one or two terminal amino acids simultaneously from the C- and N- terminus of the peptide) and screened for these TPs in the HRMS data.
# For cecropin P1, we performed absolute quantification for TPs II, III, IV, V, VI, and X and found the highest concentrations for TP III. Up to 8.8% of spiked cecropin P1 is converted to TP III during incubations with wastewater extract. For TP II, the conversion ranges from 3.7–5.7%, and for TP V and VI, conversions range between 1.5 and 4.9 and 2.1 and 2.9%, respectively. […]
# [3] = AMP incubation with autoclaved wastewater extracts (abiotic removal / adsorption control); format: physicochemical; details: wastewater extracts (pool I influent)
# Description: We thawed enzyme extracts and transferred 1.35 mL to 2 mL protein LoBind Eppendorf tubes. For autoclaved controls, extract aliquots of 1.5 mL were autoclaved for 20 min at 121 °C and 2 bar (Wolf Sanoclav LaS-MCS-J) and 1.35 mL of the autoclaved extracts were transferred into 2 mL protein LoBind Eppendorf tubes. We then spiked 150 μL of the AMP stock solution containing all AMPs at 10 μg/mL to the enzyme extracts or 1.35 mL of ultrapure water. […] Triplicate incubations were conducted for the autoclaved and active extracts with spiked AMP. After AMP spiking, we mixed the solutions by inverting the vials and incubating them at 20 °C under horizontal shaking at 300 rpm. […]
# We analyzed AMPs using UHPLC (Thermo Scientific Dionex Ultimate 3000) equipped with a Waters XSelect PREMIER CSH C18 column (article number: 186009870) coupled to HRMS (Thermo QExactive). […]
# In parallel to AMP incubations with active enzyme extracts, we conducted AMP incubations with autoclaved enzyme extracts to control for abiotic removal (e.g., due to adsorption to components in wastewater extracts). Autoclaving decreased the peptidase activity, as measured with the above-mentioned fluorogenic probe-based assay, of wastewater extracts to <3% of their original activity. […] We determined the AMP concentrations in unspiked enzyme extracts, which were below the limit of quantification (LOQ) for all AMPs in all WWTPs.
substance,measurement,setting,value
"cecropin P1 (SWLSKTAKKLENSAKKRISEGIAIAIQGGPR; UniProt P14661 14-44, looked up) [AMP from the parasitic nematode Ascaris suum; linear peptide of canonical amino acids]","biotransformation extent (eq 1, from concentrations in active and autoclaved extracts)",[1],> 0.5
same,removal by biotransformation in active wastewater extracts (in words),[1],rapidly removed to nonquantifiable concentrations
same,concentration after 30 min of incubation in active extracts,"[1]; pool I influent extracts from all tested WWTPs, 20 °C, HPLC-HRMS",below the LOQ
same,detectable removal between first sampling time point and 30 min in active extracts,"[1]; pool I influent extracts, WWTPs A-D, all AMPs spiked together (150 μL of 10 μg/mL into 1.35 mL extract), 20 °C, 300 rpm, first point 2 min, then 30 min, HPLC-HRMS, triplicate incubations, maximum over WWTPs, limited by LOQ",up to 85%
same,"share of spiked AMP concentration that could be transformed into the selected TPs, considering the maximum sorption potential of each TP",[2],up to 31.6%
same,sum of quantified TPs as share of the initially spiked AMP concentration,[2],22.8%
same,spiked AMP removed by sorption,[3],up to 70%
